Test results published in publication PMC7984459.

Molecular target: Epac1-camps-PDE4A1
Assay: molecular brightness analysis

stoichiometry N: 2
Substance: Epac1-camps-PDE4A1
